A short description of the data set: yeast display, Sf9 membrane polyspecificity reagent, FACS + sequencing; frameworks hold sequencing errors. Put shortly:
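After 36–48 hours of galactose induction, yeast (Saccharomyces cerevisiae BJ5465) displaying a synthetic nanobody library were stained at 4 °C for 1 hour with 10% biotinylated, detergent-solubilized Sf9 membrane reagent. Streptavidin microbeads enriched the stained cells before FACS sorting into low and high (top ~1%) gates on anti-HA and streptavidin fluorescence. Each clone's polyreactivity label reflects its gate of origin.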
Turning to “QVQLVESGGGLVQAGGSLRLSCAASGFTFAGYAMGWYRQAPGKERELVAAISISGGRTYYADSVKGRFTSSRDYAKNTVYLQMNSLKPEDTAVYYCNAASREPSGYDYWGQGTQVTVSS”, the “polyreactivity (PSR sort gate)” value is “high polyreactivity”.
In the case of “QVQLVESGGGLVQAGGSLRLSCAASGFTFAGYGMGWYRQAPGKERELVAAISSSGGSTYYADSVKGRFTISRDNAKNTVYLQMNSLIPEDTAVYYCAAGRPYGDGDYWGQGTQVNVSS” it was “high polyreactivity”; in that of “QVQLVESGGGLVQAGGSLRLSCAASGFTFANYAMGWYRQAPGKERELVASITRSGGSTYYADSVKGRFTISRDNAKNTVYLQMNSLKPEDTAVYYCAKDRRRWYYTRDYWGQGTQVTVSS”, “low polyreactivity”; in that of “QVQLVESGGGLVQAGGSLRLSCAASGFTFAPNPMGWYRPAPGKEWELVAAITRSGGSTYYADSVKGRFTISRDNAKNTVYLQMYSLKPEDTAVYYCNAGRRGSGYVYWGQGTQVTVSS”, “high polyreactivity”.
Consider “QVQLVESGGGLVQAGGSLRLSCAASGFTFAPYDMGWYRQAPGKERELVATISWSGARTYYADSVKGRFTISRDNAKNTVYLQMNSLKAEDTAVYYCAAAYSSSKSSGNYYYWGQGTQVTVSS”, for which the “polyreactivity (PSR sort gate)” value was “high polyreactivity”.
On to “QVQLVESGGGLVQAGGSLRLSCAASGFTFARNAMGWYRQATGKERELVASITQRGGSTNYADSVKVRFTISRDNAQNTVYLQMNSLKPEDTAVYYCNKASQLYYIQGTYSYGYWGQGTQVTVSS”, for which the “polyreactivity (PSR sort gate)” value was “low polyreactivity”.
For the sequence “QVQLVESGGGLVQAGGSLRLSCAASGFTFARNGMGWYRQATVKEREFVAAITRSGGRTYYADSVKGRFTISRDNAKNTVYLQMNSLKPEDTAVYYCAAATSYGKSEYDYWGQGTQVTVSS”, the “polyreactivity (PSR sort gate)” value is listed as “high polyreactivity”.
The entry for “QVQLVESGGGLVQAGGSLRLSCAASGFTFARYALGWYRQAPGKERELVAGITYRGGRTYYADSVKGRFTISRDNEKNTVYLQMNRLKPEDTAVYYCARYGPIKYYSWGQGTQVTVSS” is “high polyreactivity”.
As for “QVQLVESGGGLVQAGGSLRLSCAASGFTFARYAMGWYRQAPGKERELVAAISRGTTTYYADSVKGRFTISRDNAKNTVYLQMNSLKPEDTAVYYCAARAVSEYFVVPFYYWGQGTQVTVSS”, the “polyreactivity (PSR sort gate)” value was “high polyreactivity”.
With “QVQLVESGGGLVQAGGSLRLSCAASGFTFARYSMGWYRQAPGKERELVAAISRGGDSTYYADSVKGRFTISRDNAKNTVYLQMNSLKPEDSAVYYCAADISHRGYREYYSWGQGTQVTVSS”, the “polyreactivity (PSR sort gate)” value was “high polyreactivity”.
Regarding “QVQLVESGGGLVQAGGSLRLSCAASGFTFASNDMGWYRPAPGKERELVAAITKGGGRTYYADSVKGRFTISRDNAKNTVYLLMNSLKPEDTAVYYCAASQLIKYDYWGQGTEVTVSS”, the “polyreactivity (PSR sort gate)” value is “low polyreactivity”.
Consider “QVQLVESGGGLVQAGGSLRLSCAASGFTFASYAMGWYRQAPAKEREFVAAITSRGGNTYYADSVKGRFTISRDNAKNTVYLQMNSLKPEDTAVYYCAAKSTYVVSKMNYWGQGTQVTVSS”, for which the “polyreactivity (PSR sort gate)” value is given as “high polyreactivity”.
Consider “QVQLVESGGGLVQAGGSLRLSCAASGFTFASYAMGWYRQAPGKEREFVAAITRSGGSTYYADSVKGRFTISRDNAKNTVYLQMNSLKPEDTAVYYCNRVTSSEFDYWGQGTQVTVSS”, for which the “polyreactivity (PSR sort gate)” value was “high polyreactivity”.
Turning to “QVQLVESGGGLVQAGGSLRLSCAASGFTFASYAMGWYRQAPGKERELVAAISGSGTSTYYADSVKGRFTISRDKAKNTVYLQMNSLKPEHTAVYYCAARRYGYRYDYWGQGTQVTVSS”, the “polyreactivity (PSR sort gate)” value is “high polyreactivity”.
As for “QVQLVESGGGLVQAGGSLRLSCAASGFTFATNAMGWYTPAPGKERELVAVISSGGSTYYADSVKGLFTISRDNAKNTVYLQMNRLKPEDTAVYYCNAGRKVRGALDGYDYWGQGTQVTVSS”, the “polyreactivity (PSR sort gate)” value is on record as “high polyreactivity”.
Consider “QVQLVESGGGLVQAGGSLRLSCAASGFTFATYAMGWYRQAPGKERELVAAITSGDRTKYADSVKGRFTISRDNAKNTVYLQMNSLKPEDTAVYYCAATTYKVSTGYGYWGQGTQVTVSS”, for which the “polyreactivity (PSR sort gate)” value was “high polyreactivity”.
As to “QVQLVESGGGLVQAGGSLRLSCAASGFTFAVFARGWYRQAPGKERELVAAISRTGTRTYYADSVKGRFTISRDNAKNTVYLQMNSLKPEDTAVYYWAADKYRHGYDYWGQGTQVTVSS”, the “polyreactivity (PSR sort gate)” value is listed as “low polyreactivity”.
On to “QVQLVESGGGLVQAGGSLRLSCAASGFTFAVNAMGWYRQAPGKERELVAAISKSGGRTYYADSVKGRFTISRDNAKNTVYLQMNSLKPEDTAVYYCAADGPGYTYDYWGQGTQVTVSS”, for which the “polyreactivity (PSR sort gate)” value is “high polyreactivity”.
As for “QVQLVESGGGLVQAGGSLRLSCAASGFTFAVNAMGWYRQAPGKERELVAAISKSGGRTYYADSVKGRFTISRDNAKNTVYLQMNSLKPEDTAVYYCAAEGPGYTYDYWGQGTQVTVSS”, the “polyreactivity (PSR sort gate)” value is “high polyreactivity”.
As for “QVQLVESGGGLVQAGGSLRLSCAASGFTFAVYAMGWSRQAAAKERELVAAISRSGTRTYYADSVKGRFTISRDNGKNTVYLQMNSLKPEDTAVYYFAAEVPDTDAYGYWGQGTQVTVSS”, the “polyreactivity (PSR sort gate)” value is listed as “low polyreactivity”.
In the case of “QVQLVESGGGLVQAGGSLRLSCAASGFTFAVYDMGWYRQAPGKERELVAVISSVGSTNYADSVKGRFTISRDNAKNTVYLQMNSLKPEDTAVYYCNAVYWYRDRWYQTGYGYWGQGTQVTVSS”, the “polyreactivity (PSR sort gate)” value was “high polyreactivity”.
As for “QVQLVESGGGLVQAGGSLRLSCAASGFTFAVYTMGWYRQAPGKERELVAAITGSGGRTYYADSVKGRFTISRDNAKNTVYLQMNSLKPEDTAVYYCNAVQRSSRQTFEYCGQGTQVTVSS”, the “polyreactivity (PSR sort gate)” value is “low polyreactivity”.
The entry for “QVQLVESGGGLVQAGGSLRLSCAASGFTFAYDAMGWYRQAPGKERELVAAIRRRGGITYYADSVKGRFTISRDNAKNTVYLQMNSLKPEDTAVYYWNAVRSYPAGYDSWGQGTQVTVSS” is “low polyreactivity”.
With “QVQLVESGGGLVQAGGSLRLSCAASGFTFAYYAMGSYRQAPGKERELVAAIRKSGATTYYADSVKGRFTISRDNSKNTVYLQMISLKPEDTAVYYCNAVVKSSSRGSIAHPGYDYWGQGTQVTVSS”, the “polyreactivity (PSR sort gate)” value is “high polyreactivity”.
On to “QVQLVESGGGLVQAGGSLRLSCAASGFTFAYYAMGWYRQAPGKERELVAAISSGDNTNYADSVKGRFTISRDNAKNTVYLQMNSLKPEDTAVYYCNAEYNFKWWGPYWYYVKDDYWGQGTQVTVSS”, for which the “polyreactivity (PSR sort gate)” value is “low polyreactivity”.
The entry for “QVQLVESGGGLVQAGGSLRLSCAASGFTFAYYAMGWYRQAPGKERELVAAITSGGSTKYADSVKGRFTISRDNAKNTVYLQMNSVKPEDTAVYYCFLRGRATQWDFGYWGQGTQVTVSS” is “high polyreactivity”.
For the sequence “QVQLVESGGGLVQAGGSLRLSCAASGFTFAYYAMGWYRQAPGKERELVASITSGGSTYYADSVKGRFTISRDNAKNTVYLQMNSLKPEATAVYYCAARVRSELIKRYYWGQGTQVTVSS”, the “polyreactivity (PSR sort gate)” value is recorded as “high polyreactivity”.
“QVQLVESGGGLVQAGGSLRLSCAASGFTFAYYAMGWYRQAPGKETELVAAITSGGRTNYADSVKGRFTISRDNAKNTVYLQMNSVKPEDTAVDYCAKYRRGGSRHYSVFNHDYWGQGTQVTVSS”: the “polyreactivity (PSR sort gate)” value is on record as “high polyreactivity”.
Regarding “QVQLVESGGGLVQAGGSLRLSCAASGFTFDDYAMGWYRQAPGKERELVAAISWSGGSTYYADSVKGRFTISRDNAKNTVYLQMNSLKPEDTAVYYCAALRTGAQYSTMDYWGQGTQVTVSS”, the “polyreactivity (PSR sort gate)” value was “low polyreactivity”.
Consider “QVQLVESGGGLVQAGGSLRLSCAASGFTFDDYVMGWYRQAPGKERELVAAISRSGGSTYYADSVKGRFTISRDNAKNTVYLQMNSLKPEDTAVYYCAARTYSWGDWGQGTQVTVSS”, for which the “polyreactivity (PSR sort gate)” value is recorded as “high polyreactivity”.
The entry for “QVQLVESGGGLVQAGGSLRLSCAASGFTFDFYAMGWYRQAPGKERELVAAISKNDGTTYYADSVKGRFTISRDNAKNTVYLQMNSLKPEDTAVYYCAAESGYPVYTYVSSGDYWGQGTQVTVSS” is “low polyreactivity”.
Regarding “QVQLVESGGGLVQAGGSLRLSCAASGFTFDFYAMGWYRQAPGKERELVASIRWSGGSTYYADSVKGRFTISRDNAKNTVYLQMNSLKPEDTAVYYCAKSIASAAYDSWGQGTQVTVSS”, the “polyreactivity (PSR sort gate)” value is given as “low polyreactivity”.
As for “QVQLVESGGGLVQAGGSLRLSCAASGFTFDFYVMGWYRPAPGTERELVAANSWDGGTTYYADSVKGRFTISRDNAKNTVYLQLNSLKPEDTAVYYCAADDWVYVPTGAWYLYEYWGQGTQVTVSS”, the “polyreactivity (PSR sort gate)” value is “high polyreactivity”.
In the case of “QVQLVESGGGLVQAGGSLRLSCAASGFTFDGYAMGWDRQAPGKESELVAAISDSGDSTYYADSVKGRFTISRDNAKNTVYLQMNSLTPEDTAVYYCAAGLGYYWSDYFADDSCGQGTQVTVSS” it was “low polyreactivity”; in that of “QVQLVESGGGLVQAGGSLRLSCAASGFTFDINAMGWSRQAPGKERELVAAISRSGGRTYYADSVKGRFTISRDNAKNTVYLQMNSLKPDDTAVYYCAARYPERRYNTFDYWGQGTQVTVSS”, “high polyreactivity”.
Turning to “QVQLVESGGGLVQAGGSLRLSCAASGFTFDIYAMGWYRQAPGKERELVATISRSGGTTYYADSVKGRFTISRDNAKNTVYLQMNSLKPEDTAVYYCNAGRYYIGGYWGQGTQVTVSS”, the “polyreactivity (PSR sort gate)” value is recorded as “high polyreactivity”.
Take “QVQLVESGGGLVQAGGSLRLSCAASGFTFDIYAMGWYRQAPGKEREMVADITSGGSTDYADSVKGRFTISRDNAKNTVYLQMNSLKPEDTAVYYCNGAVFYDPEWQYDYWGQGSQVTVSS”: the “polyreactivity (PSR sort gate)” value was “low polyreactivity”.
For the sequence “QVQLVESGGGLVQAGGSLRLSCAASGFTFDKNTMGWYRQAPGKERELVAAITRGGGSTYYADSVKGRFTISRDNAKNTVYLQMNSLKPEDTAVYYCAARYWTKRYRLLDYWGQGTQVTVSS”, the “polyreactivity (PSR sort gate)” value is given as “high polyreactivity”.
In the case of “QVQLVESGGGLVQAGGSLRLSCAASGFTFDLYAMGWYRQAPGKERELVAAISWSGGSTRYADSVKGRFTISRDNAKNTVYLQMNSLKPEDTAVYYCARQPRLYFKGKLYGYWGQGTQVTVSS” it was “high polyreactivity”; in that of “QVQLVESGGGLVQAGGSLRLSCAASGFTFDRNAMGWYRQAPGKERGLVAAISSSGGRTYYADSVKGRFTISRDNAKNTVYLQMNSLKPEDTAVYYCAATSSYSYDYWGQGTQVTVSS”, “high polyreactivity”.
With “QVQLVESGGGLVQAGGSLRLSCAASGFTFDRYANGWYRQAPWKAWELVAAITRRGGSTYYADSVKGRFTISRDNAKKTVYLQMNSLKPEDTAVYYCNARTYVTVDYDYCGQGTQVTVSS”, the “polyreactivity (PSR sort gate)” value is reported as “high polyreactivity”.

The values above are taken from the nanobody polyreactivity screen of Harvey et al. (2022).
